Test results from article PMC10933417.

T1: ZNF827 wild-type (Homo sapiens, UniProt Q17R98 1-1081)
T1 sequence: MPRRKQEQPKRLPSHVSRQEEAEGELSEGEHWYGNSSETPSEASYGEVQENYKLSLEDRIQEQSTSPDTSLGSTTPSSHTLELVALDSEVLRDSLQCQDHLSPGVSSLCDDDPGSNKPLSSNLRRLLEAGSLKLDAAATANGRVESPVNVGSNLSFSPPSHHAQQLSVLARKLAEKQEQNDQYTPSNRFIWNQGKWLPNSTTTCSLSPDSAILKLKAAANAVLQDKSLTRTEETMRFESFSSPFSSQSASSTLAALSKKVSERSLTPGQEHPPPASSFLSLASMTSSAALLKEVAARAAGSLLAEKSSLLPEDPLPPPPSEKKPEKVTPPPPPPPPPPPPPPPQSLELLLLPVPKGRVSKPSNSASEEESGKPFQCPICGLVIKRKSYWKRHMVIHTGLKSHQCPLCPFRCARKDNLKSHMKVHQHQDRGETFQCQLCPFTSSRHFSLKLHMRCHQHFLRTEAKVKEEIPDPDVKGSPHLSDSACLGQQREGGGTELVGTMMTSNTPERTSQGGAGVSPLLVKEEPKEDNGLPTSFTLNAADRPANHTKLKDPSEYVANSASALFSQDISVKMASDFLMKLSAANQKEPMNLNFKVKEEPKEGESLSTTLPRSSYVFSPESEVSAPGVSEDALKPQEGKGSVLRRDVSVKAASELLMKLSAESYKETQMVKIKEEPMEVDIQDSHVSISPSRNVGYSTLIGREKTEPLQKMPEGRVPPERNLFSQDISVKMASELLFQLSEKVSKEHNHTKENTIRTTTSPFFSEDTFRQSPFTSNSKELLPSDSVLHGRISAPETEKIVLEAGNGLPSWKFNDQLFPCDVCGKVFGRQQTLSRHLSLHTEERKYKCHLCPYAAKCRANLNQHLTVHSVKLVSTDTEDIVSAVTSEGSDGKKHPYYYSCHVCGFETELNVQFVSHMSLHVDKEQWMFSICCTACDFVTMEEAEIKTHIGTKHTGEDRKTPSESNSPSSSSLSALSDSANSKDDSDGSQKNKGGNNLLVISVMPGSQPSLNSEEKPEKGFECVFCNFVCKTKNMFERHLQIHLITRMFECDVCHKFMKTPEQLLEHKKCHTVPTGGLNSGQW

T2: ZNF827 ZnFΔ1-3 (Homo sapiens, UniProt Q17R98 1-373+456-1081, internal_change)
T2 sequence: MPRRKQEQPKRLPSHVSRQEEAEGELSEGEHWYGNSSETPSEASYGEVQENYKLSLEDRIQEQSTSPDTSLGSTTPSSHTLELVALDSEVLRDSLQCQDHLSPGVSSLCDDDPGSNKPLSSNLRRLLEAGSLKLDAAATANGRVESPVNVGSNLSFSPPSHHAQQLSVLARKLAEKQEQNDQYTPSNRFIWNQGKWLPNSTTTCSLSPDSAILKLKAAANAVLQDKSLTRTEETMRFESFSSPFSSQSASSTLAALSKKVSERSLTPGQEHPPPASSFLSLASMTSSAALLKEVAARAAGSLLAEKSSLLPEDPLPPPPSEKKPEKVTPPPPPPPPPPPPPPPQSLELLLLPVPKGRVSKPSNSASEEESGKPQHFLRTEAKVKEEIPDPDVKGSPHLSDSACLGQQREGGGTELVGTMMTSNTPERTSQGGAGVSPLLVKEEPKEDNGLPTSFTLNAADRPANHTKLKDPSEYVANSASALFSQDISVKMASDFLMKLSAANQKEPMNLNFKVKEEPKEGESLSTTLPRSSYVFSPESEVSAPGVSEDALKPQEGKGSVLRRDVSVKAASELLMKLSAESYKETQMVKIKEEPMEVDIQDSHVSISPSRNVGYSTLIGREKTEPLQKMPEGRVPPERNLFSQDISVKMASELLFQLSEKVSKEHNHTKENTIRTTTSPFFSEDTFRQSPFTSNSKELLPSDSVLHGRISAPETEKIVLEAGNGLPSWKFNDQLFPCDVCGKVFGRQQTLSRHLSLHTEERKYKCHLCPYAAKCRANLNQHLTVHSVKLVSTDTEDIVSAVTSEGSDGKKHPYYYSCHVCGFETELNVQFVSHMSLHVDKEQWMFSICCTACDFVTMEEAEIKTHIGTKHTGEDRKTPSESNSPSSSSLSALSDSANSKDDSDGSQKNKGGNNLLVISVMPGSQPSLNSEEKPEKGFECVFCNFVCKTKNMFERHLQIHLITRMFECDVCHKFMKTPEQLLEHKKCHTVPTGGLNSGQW

T3: ZNF827 ZnFΔ4-9 (Homo sapiens, UniProt Q17R98 1-816+1070-1081, internal_change)
T3 sequence: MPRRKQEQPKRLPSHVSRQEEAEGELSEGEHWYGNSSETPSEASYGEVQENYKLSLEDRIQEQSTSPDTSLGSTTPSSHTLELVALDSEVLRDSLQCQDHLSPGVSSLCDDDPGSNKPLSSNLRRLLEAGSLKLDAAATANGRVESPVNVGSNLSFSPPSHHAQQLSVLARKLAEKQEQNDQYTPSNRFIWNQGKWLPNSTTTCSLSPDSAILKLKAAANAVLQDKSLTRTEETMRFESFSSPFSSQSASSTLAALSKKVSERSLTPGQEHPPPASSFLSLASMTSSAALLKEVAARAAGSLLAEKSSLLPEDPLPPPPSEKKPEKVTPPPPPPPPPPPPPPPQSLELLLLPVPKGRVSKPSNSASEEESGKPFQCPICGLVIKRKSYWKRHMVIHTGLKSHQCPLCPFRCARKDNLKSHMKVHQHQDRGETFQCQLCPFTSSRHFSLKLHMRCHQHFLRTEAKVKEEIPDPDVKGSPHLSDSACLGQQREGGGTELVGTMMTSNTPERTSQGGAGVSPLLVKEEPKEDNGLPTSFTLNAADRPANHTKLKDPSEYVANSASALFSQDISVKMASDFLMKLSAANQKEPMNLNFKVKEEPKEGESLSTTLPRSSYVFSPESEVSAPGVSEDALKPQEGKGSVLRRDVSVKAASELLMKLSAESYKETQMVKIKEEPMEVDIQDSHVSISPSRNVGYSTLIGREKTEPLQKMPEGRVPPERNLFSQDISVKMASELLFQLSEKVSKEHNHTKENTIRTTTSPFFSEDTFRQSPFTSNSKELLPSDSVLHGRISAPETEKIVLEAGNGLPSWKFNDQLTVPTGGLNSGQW

B1: ssDNA pentaprobe (ssDNA)
DNA: CGCTCTATTCTACTGTCCTGTGCATTCAATCGTTGAGTTCGATCTAGTCTCGTCTAACCCTCCCCTGCTCCGCTGGTCTGGCCTCGCCTATCCTACCCAT
B2: dsDNA pentaprobe (dsDNA)
DNA 1: B1 DNA
DNA 2: ATGGGTAGGATAGGCGAGGCCAGACCAGCGGAGCAGGGGAGGGTTAGACGAGACTAGATCGAACTCAACGATTGAATGCACAGGACAGTAGAATAGAGCG

Tests used:
[1] = molecular target: ZNF827 wild-type;RPA heterotrimer (Homo sapiens;Homo sapiens?, UniProt Q17R98;P27694;P15927;P35244 1-1081;1-616;1-270;1-121, |); assay: EMSA; 0.8 mM ZnCl2; intermediate band only with both proteins; RPA partly displaces ZNF827; 20 mM HEPES-KOH pH 7.9, 100 mM KCl, 0.8 mM ZnCl2, 0.2 mM EDTA, 5% glycerol, 0.5 mM DTT, 0.5 mM PMSF, 6.25 ug/mL poly(dI:dC), 50 ng/uL BSA, ~0.5 nM probe, on ice; gel at 4 °C; conditions: protein: recombinant;recombinant; tags: HaloTag removed by TEV cleavage;; copies: 1;1;1;1; label: 32P (T4 PNK end label)
[2] = molecular target: T1, ZNF827 wild-type; assay: EMSA; 0.8 mM ZnCl2; 20 mM HEPES-KOH pH 7.9, 100 mM KCl, 0.8 mM ZnCl2, 0.2 mM EDTA, 5% glycerol, 0.5 mM DTT, 0.5 mM PMSF, 6.25 ug/mL poly(dI:dC), 50 ng/uL BSA, ~0.5 nM probe, on ice; gel at 4 °C; conditions: protein: recombinant, tags: HaloTag removed by TEV cleavage, label: 32P (T4 PNK end label)
[3] = molecular target: RPA heterotrimer (UniProt P27694;P15927;P35244 1-616;1-270;1-121); assay: as above; conditions: protein: recombinant; copies: 1;1;1; label: 32P (T4 PNK end label)
[4] = molecular target: T2, ZNF827 ZnFΔ1-3; assay: as above; conditions: protein: recombinant, tags: HaloTag removed by TEV cleavage, label: 32P (T4 PNK end label)
[5] = molecular target: T3, ZNF827 ZnFΔ4-9; assay: as above; conditions: protein: recombinant; tags: HaloTag removed by TEV cleavage; label: 32P (T4 PNK end label); blunt

Sequence of ZNF827 wild-type;RPA heterotrimer (P27694 whole entry, chain 2 of 3): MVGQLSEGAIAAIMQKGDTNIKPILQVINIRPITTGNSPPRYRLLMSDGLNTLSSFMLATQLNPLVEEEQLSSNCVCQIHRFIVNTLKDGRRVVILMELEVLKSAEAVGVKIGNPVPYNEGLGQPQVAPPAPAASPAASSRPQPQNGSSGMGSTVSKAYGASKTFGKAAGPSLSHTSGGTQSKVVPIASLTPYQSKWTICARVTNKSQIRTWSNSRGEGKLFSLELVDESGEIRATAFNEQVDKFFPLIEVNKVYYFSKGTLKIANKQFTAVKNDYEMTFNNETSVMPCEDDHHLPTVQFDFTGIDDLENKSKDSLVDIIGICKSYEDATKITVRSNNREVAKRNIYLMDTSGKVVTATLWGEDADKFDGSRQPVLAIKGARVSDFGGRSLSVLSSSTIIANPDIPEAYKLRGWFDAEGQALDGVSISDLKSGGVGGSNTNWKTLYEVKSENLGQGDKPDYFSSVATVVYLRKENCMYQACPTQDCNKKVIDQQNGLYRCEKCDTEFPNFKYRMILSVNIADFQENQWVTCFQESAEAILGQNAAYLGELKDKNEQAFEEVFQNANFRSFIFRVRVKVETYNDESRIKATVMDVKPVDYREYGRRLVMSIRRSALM
Sequence of ZNF827 wild-type;RPA heterotrimer (P15927 whole entry, chain 3 of 3): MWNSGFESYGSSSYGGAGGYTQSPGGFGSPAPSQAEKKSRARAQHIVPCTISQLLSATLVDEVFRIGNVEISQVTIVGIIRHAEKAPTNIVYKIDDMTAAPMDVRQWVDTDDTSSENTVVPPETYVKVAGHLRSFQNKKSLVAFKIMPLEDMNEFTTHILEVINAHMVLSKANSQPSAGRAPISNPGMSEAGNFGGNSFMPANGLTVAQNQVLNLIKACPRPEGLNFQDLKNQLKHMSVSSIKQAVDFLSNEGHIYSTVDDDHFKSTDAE
Sequence of ZNF827 wild-type;RPA heterotrimer (P35244 whole entry, chain 4 of 3): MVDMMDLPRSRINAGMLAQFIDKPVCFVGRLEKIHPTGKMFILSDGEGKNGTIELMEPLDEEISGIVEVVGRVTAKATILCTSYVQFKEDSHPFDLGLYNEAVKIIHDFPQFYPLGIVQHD
Sequence of RPA heterotrimer (P27694 whole entry, chain 1 of 3): as the sequence (P27694 whole entry, chain 2 of 3) above
Sequence of RPA heterotrimer (P15927 whole entry, chain 2 of 3): as the sequence (P15927 whole entry, chain 3 of 3) above
Sequence of RPA heterotrimer (P35244 whole entry, chain 3 of 3): as the sequence (P35244 whole entry, chain 4 of 3) above

| Binder | binding result [1] | binding result [2] | binding result [3] | binding result [4] | binding result ([2]; blunt) | binding result ([4]; blunt) | binding result [5] |
| --- | --- | --- | --- | --- | --- | --- | --- |
| B1 | binds | binds | binds | no binding | – | – | – |
| B2 | – | – | – | – | no binding | no binding | no binding |
